From article PMC2760798 (Nucleic Acids Research, 2009)
Substitutions are numbered along the chain they refer to. Names may count otherwise.

Key:
AUC = biological target: the molecule itself; assay: AUC
SfiI D79A [1] = biological target: T1, SfiI D79A (UniProt O52512 1-269, D79A); assay: EMSA
T1 sequence: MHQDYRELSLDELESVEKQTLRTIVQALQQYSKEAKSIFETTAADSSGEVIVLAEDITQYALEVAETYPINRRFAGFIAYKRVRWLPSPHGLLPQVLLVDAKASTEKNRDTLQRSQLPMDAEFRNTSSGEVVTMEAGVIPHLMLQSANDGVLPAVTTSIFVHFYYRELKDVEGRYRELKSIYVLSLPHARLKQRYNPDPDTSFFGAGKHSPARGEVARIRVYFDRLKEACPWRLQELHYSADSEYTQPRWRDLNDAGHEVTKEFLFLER

SfiI D100A [2] = biological target: T2, SfiI D100A (UniProt O52512 1-269, D100A); assay: EMSA
T2 sequence: T1 sequence with A79D, D100A

SfiI endonuclease wt [3] = biological target: T3, SfiI endonuclease wt (UniProt O52512 1-269); assay: EMSA
T3 sequence: T1 sequence with A79D

SfiI D79A [4] = biological target: T1, SfiI D79A; assay: competition
SfiI D100A [5] = biological target: T2, SfiI D100A; assay: competition
SfiI endonuclease wt [6] = biological target: T3, SfiI endonuclease wt; assay: competition

B1: SfiI restriction endonuclease D79A mutant (enzyme)
chain: T1 sequence
In the case of B1, the “stoichiometry N” value (AUC) is reported as 4.

B2: SfiI restriction endonuclease D100A mutant (enzyme)
chain: T1 sequence with A79D, D100A
B2 was tested, and the “stoichiometry N” value (AUC) was 4.

B3: HEX-35 (dsDNA)
DNA 1: TCGATCCATGTGGCCAACAAGGCCTATTTGTCGAT
DNA 2: ATCGACAAATAGGCCTTGTTGGCCACATGGATCGA
With B3 the Kd (SfiI D79A [1]) was < 0.01 µM, the Kd (SfiI D100A [2]) was < 0.01 µM and the Kd (SfiI endonuclease wt [3]) was < 0.01 µM.

B4: C-21 (dsDNA)
DNA 1: ATGTGGCCAACAAGGCCTATT
DNA 2: AATAGGCCTTGTTGGCCACAT
B4: binds (SfiI D79A [4]); binds (SfiI D100A [5]); binds (SfiI endonuclease wt [6]).
